In PMC5663475, “SAV1 promotes Hippo kinase activation through antagonizing the PP2A phosphatase STRIPAK” (eLife, 2017):
Blank lines part the entries; values can stand above or below the molecule they belong to. Non-standard residues stand in square brackets, D forms with d. Residues, ends and D or L forms follow the SMILES beside them. pT = C[C@@H](OP(=O)(O)O)[C@H](N)C(=O)O

Legend:
MOB1^33-216 = target: T1, MOB1^33-216 (Homo sapiens, UniProt Q9H8S9); assay: ITC, MOB1^33-216 with phospho-MST2 peptides; format: binding; conditions: MicroCal iTC200, 20 °C, 20 mM Tris pH 8.0, 50 mM NaCl, 50 µM protein titrated with 500 µM peptide, measured as controls
T1 construct: recombinant MOB1^33-216 and pT378-MST2 peptides
T1 sequence (Q9H8S9 33-216): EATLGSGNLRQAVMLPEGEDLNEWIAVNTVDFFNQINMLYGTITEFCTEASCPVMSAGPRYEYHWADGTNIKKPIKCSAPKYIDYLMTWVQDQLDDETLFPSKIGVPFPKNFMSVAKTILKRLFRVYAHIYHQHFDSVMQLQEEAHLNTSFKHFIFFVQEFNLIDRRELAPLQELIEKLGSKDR
Experimental: The binding affinities between purified recombinant human SLMAP-FHA (residues 1–140) and the phospho-MST2 peptides were measured using a MicroCal iTC200 calorimeter (GE Healthcare) at 20 °C. The binding affinities between recombinant MOB1^33-216 and pT378-MST2 peptides were measured as controls. Ratio of protein to peptide concentration was 1:10 for each experiment. A 50 µM SLMAP-FHA or MOB1^33-216 sample in the buffer containing 20 mM Tris, pH 8.0, 50 mM NaCl was titrated with 500 µM of phospho-MST2 peptide in the same buffer. All phospho-MST2 peptides were synthesized with the following sequences: pT325-MST2^320-329, ELDSHpTMVKT; pT336-MST2^331-340, VESVGpTMRAT; pT378-MST2^373-382, EEEDGpTMKRN; and pT378-MST2^371-401, DEEEEDGp[…]. Due to low solubility of pT325-MST2^320-329, 5% (v/v) DMSO was added to both protein and peptide buffers. Peptide concentration was measured using the spectrophotometer at wavelength λ = 205 nm. In all cases, thermograms were integrated using NITPIC method ([Keller et al., 2012]), imported to the SEDPHAT software ([Zhao et al., 2015]), and binding-model fits (A + B < ->AB) were made by fixing the protein concentration adjustment coefficients and allowing the software to adjust peptide concentration by a correction coefficient, as it is not 100% accurate due to the nature of the concentration measurements. […]

SLMAP = SLMAP (UniProt Q14BN4); assay: anti-FLAG IP, anti-SLMAP blot; conditions: reference: MST2 wild type; sites T325,T336,T378
human SAV1 WW2 (human) = human SAV1 WW2 (human) (UniProt Q9H4B6); assay: SEC; recombinant SAV1 WW1 and WW2 on a Superdex 75 gel filtration column
[1] = target: PP2A A subunit (recombinant) (human) (UniProt P30153)
PP2A A subunit (recombinant) (human), sequence (P30153 whole entry): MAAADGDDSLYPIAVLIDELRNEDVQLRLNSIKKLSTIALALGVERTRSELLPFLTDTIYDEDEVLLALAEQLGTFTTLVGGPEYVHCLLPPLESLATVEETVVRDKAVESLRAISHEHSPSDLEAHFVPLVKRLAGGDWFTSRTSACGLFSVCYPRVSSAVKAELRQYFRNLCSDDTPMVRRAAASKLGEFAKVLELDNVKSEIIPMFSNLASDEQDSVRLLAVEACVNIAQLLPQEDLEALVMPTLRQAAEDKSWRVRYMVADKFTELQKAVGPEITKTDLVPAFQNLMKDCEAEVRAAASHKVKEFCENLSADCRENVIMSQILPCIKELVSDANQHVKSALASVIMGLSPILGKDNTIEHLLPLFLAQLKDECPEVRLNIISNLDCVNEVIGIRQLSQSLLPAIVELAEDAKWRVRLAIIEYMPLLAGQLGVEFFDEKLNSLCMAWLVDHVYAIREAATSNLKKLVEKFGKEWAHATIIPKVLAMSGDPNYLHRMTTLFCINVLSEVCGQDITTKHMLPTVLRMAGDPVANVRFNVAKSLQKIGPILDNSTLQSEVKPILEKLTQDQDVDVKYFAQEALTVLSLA

PP2A A-C = assay: In vitro PP2A inhibition assay (dephosphorylation of MST2 pT180); format: biochemical; conditions: 0.1 µM PP2A A-C, 1 µM MST2 KD, quantitative Western blot
Experimental: For PP2A A-C phosphatase inhibition assays, 0.1 µM PP2A A-C was mixed with the indicated concentrations of SAV1^1-90 and incubated at room temperature for 15 min. […] After 30 min incubation, 15 µl reaction mixture was quenched by the addition of the same volume of 2X SDS sample buffer and boiled for 5 min. The remaining pT180 of MST2 was analyzed by quantitative Western blot using a specific antibody against pT180 of MST2.

PP2A A subunit = assay: Gel filtration co-fractionation of SAV1^1-90 with PP2A A subunit; format: binding; conditions: Superdex 200 gel filtration; PP2A A : SAV1^1-90 1:6 molar ratio; 20 mM Tris pH 8.0, 50 mM NaCl, 1 mM TCEP
Experimental: The N-terminal fragment of SAV1^1-90 was purified by denaturation method using 8 M urea according to the manufacturer’s instructions (Qiagen). SAV1^1-90 was refolded overnight at 4°C in a buffer containing 50 mM Tris (pH 7.5), 150 mM NaCl, 5 mM MgCl2, and 1 mM DTT. To obtain the PP2A A and SAV1^1-90 complex, PP2A A was mixed with refolded SAV1^1-90 at a 1:6 molar ratio and further purified by a Superdex 200 column equilibrated with a buffer containing 20 mM Tris (pH 8.0), 50 mM NaCl, and 1 mM TCEP. For comparison, PP2A A and SAV1^1-90 alone was run under the same condition, respectively.

[2] = target: the molecule itself; assay: AUC + SEC; sedimentation velocity at 4 °C, 50,000 rpm, 20 mM Tris pH 8.0, 200 mM NaCl, 5 mM MgCl2; gel filtration on Superdex 200; co-expressed and co-purified MST2-FL/SAV1 fragment complexes
MST2 [3] = assay: MST2-SAV1 autophosphorylation (pT180); format: biochemical, human; conditions: 2.5 µM MST2-SAV1 complex, dephosphorylated by 0.5 µM PP2A A-C, then 5 µM okadaic acid; 2 mM ATP, anti-pT180 blot; at least two independent experiments
Experimental: For assaying MST2-SAV1 autophosphorylation, 2.5 µM MST2-SAV1-ΔN198 or MST2-SAV1-ΔN268 was dephosphorylated by 0.5 µM PP2A A-C core complex for 30 min at room temperature. Okadaic acid was then added to a final concentration of 5 µM and the reaction mixture was incubated on ice for another 30 min. The reaction mixture was diluted by a ratio of 1:5 at room temperature with a kinase reaction buffer containing 50 mM Tris (pH 7.5), 150 mM NaCl, 5 mM MgCl2, 2 mM ATP, and 1 mM DTT. At different time intervals, autophosphorylation was terminated by adding 2X SDS loading buffer and boiling for 5 min in 100 °C water bath. All samples were separated by SDS-PAGE and blotted by a specific antibody against pT180 of MST2.

MST2 [4] = assay: In vitro MST2 kinase assay using MOB1 as substrate; format: biochemical, human; conditions: 0.5 nM MST2, 0.4 µM MOB1, pT35-MOB1 quantitative Western blot; two biological replicates
Experimental: For in vitro kinase assays, 0.4 μM MST2-FL or MST2-ΔL was incubated in the kinase reaction buffer containing 50 mM Tris (pH 7.5), 150 mM NaCl, 10 mM MgCl2, 1 mM ATP, 1 mM DTT, and 0.1 μCi/μl γ-^32P-ATP with 40 μM myelin basic protein (MBP). At different time intervals, an aliquot of reaction mixture was added with equal volume of 2X SDS sample buffer and followed by boiling for 5 min in 100 °C water bath. All samples were separated by SDS-PAGE and analyzed by autoradiography. For in vitro kinase assays using MOB1 as substrate, 0.5 nM MST2 was incubated with 0.4 µM recombinant purified MOB1 in the kinase reaction buffer. The phosphorylated MOB1 was analyzed by quantitative Western blotting using a specific antibody against pT35 of MOB1 (Cell Signaling). The signals were quantified with the Odyssey LI-COR imaging system. For in vitro kinase assays using GST-MST2 D146N as substrate, the kinase reaction was performed with MST2 KD for 30 min at room temperature.

[5] = target: T2, MST2-FL (recombinant full-length MST2) (human, UniProt Q13188 1-491); assay: pull-down; GST-SLMAP FHA on glutathione-Sepharose beads as bait, purified MST2 proteins in TBS (50 mM Tris pH 7.5, 150 mM NaCl) with 0.05% Tween, 2 h; Coomassie-stained gel; conditions: both partners purified
T2 construct: MST2, human, full length; also called full-length (FL) MST2; source: E. coli BL21 (DE3)-T1R, purified; alone or co-expressed and co-purified with SAV1 C-terminal fragments
T2 sequence (looked up): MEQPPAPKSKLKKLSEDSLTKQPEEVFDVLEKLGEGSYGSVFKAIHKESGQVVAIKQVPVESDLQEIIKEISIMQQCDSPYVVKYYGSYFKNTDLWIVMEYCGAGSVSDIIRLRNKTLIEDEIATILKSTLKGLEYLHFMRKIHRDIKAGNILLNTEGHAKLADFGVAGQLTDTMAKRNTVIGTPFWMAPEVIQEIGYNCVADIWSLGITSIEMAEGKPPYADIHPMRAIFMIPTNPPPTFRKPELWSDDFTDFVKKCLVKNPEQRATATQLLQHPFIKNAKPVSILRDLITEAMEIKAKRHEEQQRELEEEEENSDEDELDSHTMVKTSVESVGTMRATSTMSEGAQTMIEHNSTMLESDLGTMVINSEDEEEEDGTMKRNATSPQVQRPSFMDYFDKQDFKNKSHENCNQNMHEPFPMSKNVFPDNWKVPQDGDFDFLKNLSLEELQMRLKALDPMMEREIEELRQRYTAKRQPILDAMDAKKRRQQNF

Molecule: MST2 (from UniProt Q13188) MST2 3TA
binding against the reference (SLMAP): lost

B1: SAV1^1-90 (recombinant) (domain or fragment)
chain: MLSRKKTKNEVSKPAEVQGKYVKKETSPLLRNLMPSFIRHGPTIPRRTDICLPDSSPNAFSTSGDVVSRNQSFLRTPIQRTPHEIMRRES
dephosphorylation of MST2 pT180 (1 µM MST2 kinase domain) by 0.1 µM PP2A A-C core in vitro, SAV1 1-90 at the indicated concentrations [1]: 100 µM

B2: SAV1 1–90: N-terminal fragment of SAV1 (residues 1–90), recombinant, refolded (protein)
chain: MLSRKKTKNEVSKPAEVQGKYVKKETSPLLRNLMPSFIRHGPTIPRRTDICLPDSSPNAFSTSGDVVSRNQSFLRTPIQRTPHEIMRRES
modifications: left off: FLAG, end not stated, kept
inhibition of PP2A A-C dephosphorylation of MST2 pT180 (PP2A A-C; 15 min pre-incubation with SAV1^1-90 at room temperature, 20 mM Tris pH 8.0, 100 mM NaCl, 30 min): blocked the dephosphorylation of MST2 pT180 by PP2A A-C
concentration needed for PP2A A-C inhibition (PP2A A-C; "Very high and non-physiological concentrations" needed): 100 µM
co-fractionation with recombinant PP2A A subunit (PP2A A subunit): co-fractionated

B3: SAV1-ΔN198 (domain or fragment, human, UniProt Q9H4B6 199-383, looked up)
chain: LPLPPGWSVDWTMRGRKYYIDHNTNTTHWSHPLEREGLPPGWERVESSEFGTYYVDHTNKKAQYRHPCAPSVPRYDQPPPVTYQPQQTERNQSLLVPANPYHTAEIPDWLQVYARAPVKYDHILKWELFQLADLDTYQGMLKLLFMKELEQIVKMYEAYRQALLTELENRKQRQQWYAQQHGKNF
notes: SAV1, human, N-terminal 198 residues deleted (WW1, WW2 and SARAH domains); also called SAV1 ∆N198; SAV1 fragment containing both WW domains and the SARAH domain; source: E. coli BL21 (DE3)-T1R, co-expressed with MST2, purified (glutathione-Sepharose, TEV, Superdex 200); not shown: GST, N-terminal, cleaved
binding result [2]: binds

B4: SAV1 ∆N198: SAV1 mutant which contains WW1/2 and SARAH domains (protein)
chain: LPLPPGWSVDWTMRGRKYYIDHNTNTTHWSHPLEREGLPPGWERVESSEFGTYYVDHTNKKAQYRHPCAPSVPRYDQPPPVTYQPQQTERNQSLLVPANPYHTAEIPDWLQVYARAPVKYDHILKWELFQLADLDTYQGMLKLLFMKELEQIVKMYEAYRQALLTELENRKQRQQWYAQQHGKNF
modifications: left off: GST, N-terminal, cleaved
notes: SAV1 mutant which contains WW1/2 and SARAH domains
MST2 activation (T180 autophosphorylation) in vitro (MST2 [3]): could support MST2 auto-activation
stimulation of MST2 kinase activity toward MOB1 (MST2 [4]): did not stimulate the MST2 kinase activity toward MOB1

B5: GST-SLMAP FHA (residues 1–140) (domain or fragment, human, UniProt Q14BN4 1-140, looked up)
chain: MPSALAIFTCRPNSHPFQERHVYLDEPIKIGRSVARCRPAQNNATFDCKVLSRNHALVWFDHKTGKFYLQDTKSSNGTFINSQRLSRGSEESPPCEILSGDIIQFGVDVTENTRKVTHGCIVSTIKLFLPDGMEARLRSD
notes: SLMAP, human, FHA domain, residues 1-140; also called GST-SLMAP FHA fusion protein; not shown: GST, N-terminal, kept
binding result [5]: binds

Further lines, results first:

Kd (MOB1^33-216): 9.95 µM
Molecule: CSCC[C@H](NC(=O)[C@@H](NC(=O)CNC(=O)[C@H](CC(=O)O)NC(=O)[C@H](CCC(=O)O)NC(=O)[C@H](CCC(=O)O)NC(=O)[C@@H](N)CCC(=O)O)[C@@H](C)OP(=O)(O)O)C(=O)N[C@@H](CCCCN)C(=O)N[C@@H](CCCNC(=N)N)C(=O)N[C@@H](CC(N)=O)C(=O)O [pT378-MST2^373-382] (H-EEEDG[pT]MKRN-OH)

Kd (MOB1^33-216): 0.296 µM
Molecule: CSCC[C@H](NC(=O)[C@H](Cc1ccccc1)NC(=O)[C@H](CO)NC(=O)[C@@H]1CCCN1C(=O)[C@H](CCCNC(=N)N)NC(=O)[C@H](CCC(N)=O)NC(=O)[C@@H](NC(=O)[C@H](CCC(N)=O)NC(=O)[C@@H]1CCCN1C(=O)[C@H](CO)NC(=O)[C@@H](NC(=O)[C@H](C)NC(=O)[C@H](CC(N)=O)NC(=O)[C@H](CCCNC(=N)N)NC(=O)[C@H](CCCCN)NC(=O)[C@H](CCSC)NC(=O)[C@@H](NC(=O)CNC(=O)[C@H](CC(=O)O)NC(=O)[C@H](CCC(=O)O)NC(=O)[C@H](CCC(=O)O)NC(=O)[C@H](CCC(=O)O)NC(=O)[C@H](CCC(=O)O)NC(=O)[C@@H](N)CC(=O)O)[C@@H](C)OP(=O)(O)O)[C@@H](C)O)C(C)C)C(=O)N[C@@H](CC(=O)O)C(=O)N[C@@H](Cc1ccc(O)cc1)C(=O)N[C@@H](Cc1ccccc1)C(=O)N[C@@H](CC(=O)O)C(=O)N[C@@H](CCCCN)C(=O)N[C@@H](CCC(N)=O)C(=O)N[C@@H](CC(=O)O)C(=O)O [pT378-MST2^371-401] (H-DEEEEDG[pT]MKRNATSPQVQRPSFMDYFDKQD-OH)

stoichiometry N (human SAV1 WW2 (human)): 2
Molecule: human SAV1 WW2 (from UniProt Q9H4B6 1-383) (domain or fragment)
